Test results: the DeepSol protein solubility set

Test: soluble on expression in E. coli; label from the status in PepcDB or PDB records

Sequence | soluble on expression in E. coli
GPGSMRSTAELSSPLSISLPCSLSAEPPHHTLPATTANIIALRRAADPSTFTHTHTNTARPPLPAPYFRQRDSSWCSHASPHAHRHTHTYPSLSLPAPRFFFAHRYAAAALPRRLPAIMTHEFHSLFLPLAAEEQAVFADFFPTLVASSTSIQDGVAGEHSLQPTVSATLDTYSSACATSPHSPGECGSLPEVGRGAATDAQARCDAPLRSLVFAIGSARADAVIVVLRRGDVVLYGLDRLHTPPYEKCRIRPLPTTQQLMAARENARRYSNADGAASAGSWTDASCSGGVAGSRSVVNGGVEATCAALLPLHIGYCCRIPLSASFSSATPPAGGPRRGGGGGSRDERDEDVVYLRGIVGSSDGRVSLFSDTSYTLSFAAHDIPVAQVDAVLLPPCTLDRRVSTNASPTTSTRGFSSTGAGANTRTAPSGELTSPTSPQPQERLARATQRLGLVTSGNDGVVLLWRRLGDSMSPIVVVRPSTFSSRAAYAVYHPSALSALLSSWAPPSQREAAVDAELSCPPSCLLHAATSTSHTLRVRQLASISPKPTHKSLSSAARRESVEEAAPTSMSAALPGSWSATVTAIAAHDSVTLVAMGASLLSLVKLNPRSAARVWKAAESITQLVLIDSVALAVCARSGTVHVLTIHPGTGRVVRQRVYYSYKNRAIHHTSLHVASLLMTIVDVCGSTELVQLPTDVMLPCDVRLRRGEYTSGDAANVNLLASMAALRAKVCIEAIKGGSGGGVSGSVAANEAEVTGGSTSMYEANAALDQLNERLLLARYAVPEECDNFMGANVHVF | not soluble
LKQKVENLFNEKCGEALGLKQAVKVPFALFESFPEDFYVEGLPEGVPFRRPSTFGIPRLEKILRNKAKIKFIIKKPEMFETAIKES | soluble
MSLLPKELLDVRRAKGRIFPKFADERDYELAEKVIEIFKKGLGKKYGNLMKQARKLENAKNFKKVRGFIRVLENHCIEKSCAFDVDSELEPRKVRMLLFEHGFVTSKKERDRVLEYVARYFSTTPETVERAMYADREEELILTKFRPLTPDNLIKLYNLSLLQTTLFNALRLTFWASDRHKEIFRSIKRLGLMYELYEDSGRLMVEVTGAATLLKMTRKYGVSFAKLIPWILRAKNWFIRAEISDFDRLYIMEIDDRIRDLFPDVEERLSYDSTLEEEFARKMQMLGYEVEREPDVVKAGKYAFIPDFAVNLGDKKVYIEIAGFWTDEYLRKKAEKIKSSSIPLILIAREDFGDGGANVKDVILFSRKIPYGEVIKALKRYKPEKKVEGDVVELENFAEVPSEYVIAGKYAVRREIFEEIKREIEVSNPSTLEDIKAILKKYGLGESAIRAFGYRVRWIGLGEAVIERTDEGHHHHHH | not soluble
GFASHQYVNHVEKQRPIVTLAKHPKKVLFFYRDDCPDCQAIFHRIYWHNVISHNVVFINMNQTQNRHYIQQYQLTSVPTLIHGKQRYTGTNQQRIKQIVGD | not soluble
MSLSKENIRKTSKIETKSKEFSRQNMIDLFDLYFYEDCPYQDESAELLRLVGRGKMRIVSRENGTSACAGDLAGYYEKKGLKVLNYFRDGENFKPGDAIFEAEGDIKLIFRFWRVSQTFLTMMCAIATKTASMVSEARRTNPDIIIATSRKTHPGARIFELKAVRAGGGDIHRNSLSDSIQISQNHLEVAGELGKLRAMKKIEIEPRSREEAFKYAEMSDIMLLDHLSPEELRELGPELKELNPELELAVGGIEAKRIPEYAPFVDIIVISAPYYANPLDFTTKIEREGHHHHHH | soluble
MGSDKIHHHHHHMDSVDLEVLRSSVRWQQEGHRVLLVTVVRTWGSSPRPEGAMLAVRDDGLVVGSVSGGCIEDDLIDRVRRLGITADHPESVKYGISAEEAHRFGLPCGGTIELVTEPLKPASGIAELLDAVENGRLATRTLDMATGTATLGPAEATDGLVFDGNSLLTIHGPRYRMLVIGAGQLSKYLCQIAVGLGFQVTVCDPREEYTETWDIPGVTMVRTMPDDTVTDMKLDERCAVIALTHDPKLDDLALMEALRTRAFYVGALGSRRNNQARRERLKEFDLNDVQLARLHGPVGIFIGSRTPPEIAISILAEVVAAKNHVSLPDILQVEGAKAARELAAGTGSSCDT | not soluble
MGSDKIHHHHHHMFTKKSRNIYKAGSLCEFAKAFFIGGIDVENVVKHALLKEVEQLMEQYIGGLKEIFLDEKIVGVYIYGSIALGAFHAETSDVDFVTVISDPVNEAEKQQLVELHKKLSGSTLGKRMDGMYIPLADLGKYNDEMNEYVYCADGKANIGHWDINAVTWWTLKNQGITVIGKEAEDLSFQIRWDDVVNTMKYNVEQYWSGKAKQPYLFFIEEWVESAVVTMGRILYTLDHKTIVSKDRGLQYLLEHSSEEWGPLLKEVERIRQNPKEKRMLSRWRRADMTKRFLLHLIETCRGKWTIQ | not soluble
MGSDKIHHHHHHMAQNIYDQPDFFAGYSQLGRSIEGLDGAAEWPALRAMLPEVGGLRIVDLGCGFGWFCRWAHEHGASYVLGLDLSEKMLARARAAGPDTGITYERADLDKLHLPQDSFDLAYSSLALHYVEDVARLFRTVHQALSPGGHFVFSTEHPIYMAPARPGWAIDAEGRRTWPIDRYLVEGPRKTDWLAKGVVKHHRTVGTTLNALIRSGFAIEHVEEFCPTDAQITARPELAEELDRPMFLLVSARR | not soluble
MGSDKIHHHHHHMKRQRLAIIDIGSNSIRLVINTINEHGHYQELYNFKTVARLSNHLDAQGNLTKEGTSILLTTLQKFRTLTEDHHCDRAIVVATAAMRKANNRKELLKLAEQETGFSIKLLSEYEEAYFGYLAIVNSTSIQDGITIDIGGGSTEITRFSNRKLLHYHSFPFGAITLYRDFFHSTDPSEEELASLQTFLESAFATLPWLQDAKDLPVIGIGGTARNLSLIHQRQTDYPLAGLHQYSFPAEELHSVTQMLQRLTSSEREGLDGLSKDRVDVIIPGTQAISSLVKTIGSSQFIMSRKGLRDGLFYSEILEQLNLECFPNVVEESFYQLYHQYEINLEHVKQVAKLATKLYEQLAPFYNGKLEHQQNLTLIHRAARVLYLGEHINPEASSQHTFYLLTNMSIDGLNHEERLALACVSSFKSKAQLLHMASPFMPLISKKQLKRFEFLGAILKLAYCLNRTRRHVIGKIGTIEAKRDALVLPLYYHYDLDPSFEQDYALKHVKHVEKVIKKTIELPFLPLSNFT | not soluble
MAHHHHHHMPPSTYAATAANAEAQGDDVDMHVMTYDQRCHGRSTFVGGEDHLSIEVLVRDFLDVLQYAKTELYSNSNVYVLGHSLGGAVVARALSGNKSALERVSGVLLVDVVEGTAQLSLQHMKSFLKNRPNTFPEVKDAEVWFLRMGGMQNPQGAAVSVPPLLQKNDETGLWQWRTDIRKMESVWDGWFAGLDEAFISLPCAKMLCTANAERLDKTLTVAQMQGKFQLEVIGNGCGHYVMDDATPTVVAKVRRFVKRNEELAQKLQLMNKNLSGQKINTTVPPTRT | not soluble
MSLTEKCVIKIGGSVLKDGSSLPRVMDIISHFRSPILVVSAFGGITDALYRFYEYDESRMDKLRDLLLMHLGILWKYNIEAHPEISIQDSSILDQDAYVSYGEKMSAFTLARFLTGNGIPAAPIYTDEAGLIVEEISKERTVDLEGSRAFFENIARVETSGKVPVVTGFFGIDRYGKTRILGRNSSDYSAVAVAAILGIREVILIKDVPGIYMNLEDRTSIVNRIDYETALRIVDRGSKVVHRAALRLAMKMGMNLLITSPENLESGTVIGDLFEGHHHHHH | soluble
MAHHHHHHMTSQPHVTMSKNTGSVTEQHKRMSHTTGDNNEEEKHILAGRYKTKLCKNYVARGECPYDVRCMFAHGEDELRTSDDNIRDGLVTEEAIKDFQRQQNQAKRRAAFAAAREHNNHDHSHSHNHSHSHNHTVRPVPHGNVYEMEENVESNEVYRNRNRHHNLRLHPPQEPVSIPQPQQQQQQEQQFQLQSVVAQYYTHNPYVFDLIPAAARLFPVYQEVVEEGCWYEEEPVPAQEDYYFPSSDMMMPLVPSLVTQQYLPYPHQQCSKQLETVASASTYSCEEAMYGHSESSASSAYRSVARCTAAELPSNSDIPAMVMEP | not soluble
MVHAFLIHTLRAPNTEDTGLCRVLYSCVFGAEKSPDDPRPHGAERDRLLRKEQILAVARQVESMCRLQQQASGRPPMDLQPQSSDEQVPLHEAPRGAFRLAAENPFQEPRTVVWLGVLSLGFALVLDAHENLLLAEGTLRLLTRLLLDHLRLLAPSTSLLLRADRIEGILTRFLPHGQLLFLNDQFVQGLEKEFSAAWPR | not soluble
EPAQVRLLSSDFVLPGKHQRLAGWAREAGVELRGLRLGIGEAPPGEWLDGGNLLILDTPRPTDRAQVEEALGERLQGGTQPWIRVGGGPPGFGNLPAALGGRLVGYYANGGEANLRRLFEAVRRWHAGLTVDALPAPQPLAQAGFYHPDAPAPFAVLADYLAWGASRWASDAPRIAFLIPRGAIADAQTGAIDELLRRSERHGQAPLAVWFDDSDPEALRKSFAGADVQALVNLQHLQNGPARRAEFLALDVPVLQTLGYRDGNEADWLAAASGVAPRTAAAFLGMPETWGMSDPLVISALENGEPKLMAGQAEALLDKLDRLLRLRRLPAADKHLALMFWNHPEGEKNVAASHLNVPASLARLGEALRAAGYRVATSDESALIDTAQRLLGGYYRPQTLDALYRDGLAASLPLDAYLHWFEALPADLREEMRARWGDPRRHWALRDIDGQRRFVFPAARLGNLLLLPQPPRAGRPGEAYHDSAVPPDHLYLAVYQFVREGFGADALIHFGTHGTQEWLPGKDRGLAVGDYPLRALGDLPVFYPYIQDNVGEAIQARRRGRAVTVSHQTPSFAPAGLYDELRDLHQLIHEYQQLDEGAVRERSAEQIRAAVRAAHMNDDLGWSEAAMHEDFPAFLGVLHDHLHRLAGSAMPLGLHTFGVAASPELRLGTVMQQLGEPYYRALGLDPDELFAADFRALREGRAYRTLQRYLRDGGEIAKVADPRLREQLLRARELDRQLADTGELEALLAGLAGRFVAPGPGGDPIRNPQVPSGRNLFAFEADKVPTRAAYEAGAEAFGQLLESYRAEHQGRAPEKLAFSLWSSETMRHLGIVESQALHALGLRPRWDAGGRLLALDIVPAAELGRPRVDVVLQVTSVYRDQFDGFMRLLAEAIERLAALDEPGNPLARNSQALERRLRERGVEAPLAQRLSRLRLFGNAPGDYGTGVTQLTLDSTRWDDDSALAEQFLGRLQYAYGSRDWGVKLDGGNLFAEQLKGVQAAILSRSSTLNGVLSTDHPFEYLGGLSLAVRHLDGASPALYIADLRQRQPRTTAAAQFLASELRGRYLSPQWIAAMQREGYAGSLEMLDLANNLWGWQAADRIMVRADQWQALHDTFVMDRRELGLAEWFETHNPTAQAQIIARMAEAIRKGYWDASEQTRRELAERWRQLAAAGAGEVGAATTREFIERMAGGFGEAAAQAEGAAASGAGETVSGRVLEEVAPPPSGEPQ | not soluble
ESEILGLFQRWQAAHGQRSGKALEGVYAPRLDYYGRAQTRERTLSAKQAFFARHPDFEQRIVAAPQIVPGDQEGRYEVRFVKQVRLDGRLRNYPGLLLAERAGPGDTWRFVGESDEITRYAVDPRYTPLARGRFAGTEADFAWVVAHAPNSAALCDEYEDCRCDLWSADARVPPK | not soluble
MYVLIGGAGLVGLTLAQKLVELGHTVAIIDVDHTACRYAREQVGAMAFEGSAVSTEVLLEAGIRKADALAAVLRNDALNLAMVMLAKHYGVSHILSRMRHADFAQPLRLAGANHVISTVELSVSTMVNAIEYPQVESMMHFEQGQIEVLKISIPNSCYVANRSLAEIAQDSRFPSGSLIIGYQPHPHEDLVIPNGSTVLESGSTILIATKPGSLHQVIDFIEGCKLEHHHHHH | not soluble
MAEPLLVVGLGNPGANYARTRHNLGFVVADLLAARLGAKFKAHKRSGAEVATGRSAGRSLVLAKPRCYMNESGRQIGPLAKFYSVAPANIIVIHDDLDLEFGRIRLKIGGGEGGHNGLRSVVAALGTKDFQRVRIGIGRPPGRKDPAAFVLENFTPAERAEVPTICEQAADATELLIEQGMEPAQNRVHAWKLAAALEHHHHHH | soluble
MKSLEEKTIAKEQIFSGKVIDLYVEDVELPNGKASKREIVKHPGAVAVLAVTDEGKIIMVKQFRKPLERTIVEIPAGKLEKGEEPEYTALRELEEETGYTAKKLTKITAFYTSPGFADEIVHVFLAEELSVLEEKRELDEDEFVEVMEVTLEDALKLVESREVYDAKTAYAIQYLQLKEALQAQK | not soluble
